Patent US11833164B2, “Methods of treating Fabry disease in patients having a mutation in the GLA gene” (Amicus Therapeutics, Inc., priority 2019, dated 2023)

Tested on: mutant form of α-Gal A expressed in HEK-293 cells
Assay: HEK assay (GLP HEK / Migalastat Amenability Assay): α-Gal A activity in lysates of transiently transfected HEK-293 cells incubated with or without 10 μM migalastat
Type: cell-based, human
Settings: for Absolute increase (% WT): 10 μM migalastat versus baseline; for Relative increase: 10 μM migalastat α-Gal A activity relative to baseline; for 10 μM migalastat α-Gal A activity (% WT): 5 days; for 10 μM migalastat α-Gal A activity (% WT) / Baseline α-Gal A activity (% WT): percentage of baseline wild-type α-Gal A activity; for 10 μM migalastat α-Gal A activity (% WT) / Baseline α-Gal A activity (% WT) / Baseline α-Gal A activity / 10 μM migalastat α-Gal A activity: mean ± SEM; for Baseline α-Gal A activity (% WT): absence of migalastat; for Baseline α-Gal A activity / 10 μM migalastat α-Gal A activity: lysates of HEK-293 cells transfected with the mutant form; for Baseline α-Gal A activity: incubated 5 days in the absence of migalastat; for 10 μM migalastat α-Gal A activity: incubated 5 days with 10 μM migalastat
Experimental: Such mutations or variants are also referred to herein as “HEK assay amenable” mutations or variants.
The α-Gal A activity is expressed as the nmoles of free 4-MU released per milligram of protein per hour (nmol/mg/hr).
In Table 7, values for the mean±standard error of the mean (SEM) were calculated. nmol/mg/hr indicates “nmoles of free 4-MU released per mg of protein per hour”. WT indicates “wild-type”. NC indicates “not calculable”. N/A indicates “not applicable”.

Molecule | Absolute increase (% WT) | Relative increase | 10 μM migalastat α-Gal A activity (% WT) | Baseline α-Gal A activity (% WT) | Baseline α-Gal A activity [nmol/mg/h] | 10 μM migalastat α-Gal A activity [nmol/mg/h]
A97T (protein) MQLRNPELHLGCALALRFLALVSWDIPGARALDNGLARTPTMGWLHWERFMCNLDCQEEPDSCISEKLFMEMAELMVSEGWKDAGYEYLCIDDCWMTPQRDSEGRLQADPQRFPHGIRQLANYVHSKGLKLGIYADVGNKTCAGFPGSFGYYDIDAQTFADWGVDLLKFDGCYCDSLENLADGYKHMSLALNRTGRSIVYSCEWPLYMWPFQKPNYTEIRQYCNHWRNFADIDDSWKSIKSILDWTSFNQERIVDVAGPGGWNDPDMLVIGNFGLSWNQQVTQMALWAIMAAPLFMSNDLRHISPQAKALLQDKDVIAINQDPLGKQGYQLRQGDNFEVWERPLSGLAWAVAMINRQEIGGPRSYTIAVASLGKGVACNPACFITQLLPVKRKLGFYEWTSRLRSHINPTGTVLLQLENTMQMSLKDLL | 21.4 | 1.8 | 50.9 ± 2.7 | 29.4 ± 2.2 | 11157 ± 776 | 19875 ± 1502
P98L (protein) MQLRNPELHLGCALALRFLALVSWDIPGARALDNGLARTPTMGWLHWERFMCNLDCQEEPDSCISEKLFMEMAELMVSEGWKDAGYEYLCIDDCWMALQRDSEGRLQADPQRFPHGIRQLANYVHSKGLKLGIYADVGNKTCAGFPGSFGYYDIDAQTFADWGVDLLKFDGCYCDSLENLADGYKHMSLALNRTGRSIVYSCEWPLYMWPFQKPNYTEIRQYCNHWRNFADIDDSWKSIKSILDWTSFNQERIVDVAGPGGWNDPDMLVIGNFGLSWNQQVTQMALWAIMAAPLFMSNDLRHISPQAKALLQDKDVIAINQDPLGKQGYQLRQGDNFEVWERPLSGLAWAVAMINRQEIGGPRSYTIAVASLGKGVACNPACFITQLLPVKRKLGFYEWTSRLRSHINPTGTVLLQLENTMQMSLKDLL | 19.6 | 1.3 | 88.5 ± 6.3 | 69 ± 5.5 | 24223 ± 1555 | 31835 ± 2399
P98H (protein) MQLRNPELHLGCALALRFLALVSWDIPGARALDNGLARTPTMGWLHWERFMCNLDCQEEPDSCISEKLFMEMAELMVSEGWKDAGYEYLCIDDCWMAHQRDSEGRLQADPQRFPHGIRQLANYVHSKGLKLGIYADVGNKTCAGFPGSFGYYDIDAQTFADWGVDLLKFDGCYCDSLENLADGYKHMSLALNRTGRSIVYSCEWPLYMWPFQKPNYTEIRQYCNHWRNFADIDDSWKSIKSILDWTSFNQERIVDVAGPGGWNDPDMLVIGNFGLSWNQQVTQMALWAIMAAPLFMSNDLRHISPQAKALLQDKDVIAINQDPLGKQGYQLRQGDNFEVWERPLSGLAWAVAMINRQEIGGPRSYTIAVASLGKGVACNPACFITQLLPVKRKLGFYEWTSRLRSHINPTGTVLLQLENTMQMSLKDLL | 22.5 | 1.4 | 83.4 ± 4.6 | 60.8 ± 3.1 | 21896 ± 1232 | 29920 ± 1808
P98R (protein) MQLRNPELHLGCALALRFLALVSWDIPGARALDNGLARTPTMGWLHWERFMCNLDCQEEPDSCISEKLFMEMAELMVSEGWKDAGYEYLCIDDCWMARQRDSEGRLQADPQRFPHGIRQLANYVHSKGLKLGIYADVGNKTCAGFPGSFGYYDIDAQTFADWGVDLLKFDGCYCDSLENLADGYKHMSLALNRTGRSIVYSCEWPLYMWPFQKPNYTEIRQYCNHWRNFADIDDSWKSIKSILDWTSFNQERIVDVAGPGGWNDPDMLVIGNFGLSWNQQVTQMALWAIMAAPLFMSNDLRHISPQAKALLQDKDVIAINQDPLGKQGYQLRQGDNFEVWERPLSGLAWAVAMINRQEIGGPRSYTIAVASLGKGVACNPACFITQLLPVKRKLGFYEWTSRLRSHINPTGTVLLQLENTMQMSLKDLL | 16.4 | 1.3 | 85.8 ± 5.8 | 69.4 ± 4 | 24969 ± 1730 | 31289 ± 2550
